Results as given in IntAct's records for PubMed 22949657.

B1: Tumor necrosis factor alpha-induced protein 8-like protein 2 (Homo sapiens), Q6P589 (parent)
chain: MESFSSKSLALQAEKKLLSKMAGRSVAHLFIDETSSEVLDELYRVSKEYTHSRPQAQRVIKDLIKVAIKVAVLHRNGSFGPSELALATRFRQKLRQGAMTALSFGEVDFTFEAAVLAGLLTECRDVLLELVEHHLTPKSHGRIRHVFDHFSDPGLLTALYGPDFTQHLGKICDGLRKLLDEGKL

Variants of: B1
Conditions: with RAC1, P63000-1

Variant	effect of a mutation on the interaction
K15Q;K16Q	decreasing interaction strength
R24A	disrupting interaction strength
